The source of these data is US20260008815A1, “CYCLIC PEPTIDE OR SALT THEREOF, AND USES THEREOF” (FUJIFILM Corporation, priority 2023, published 2026).

Numbered stars: 1 amine (or outer) side, 2 acyl side, 3 side chain; on linkers, the order of the positions; unused ones are H or OH. Bridge positions count the residues as written; N and C are the ends. Square brackets hold non-standard residues; d marks the D form. Primed or numbered codes have the meaning given here. Ends that are not written are not given here. acetyl″ = bridging -C(=O)-CH2- from a haloacetyl (chloroacetyl) group on the side-chain amine of K/Orn/Dab/Dap, the thiol sulfur replaces the halogen on its CH2 (X(acetyl) notation); acetyl = acetyl (haloacetyl before ring closure) on the side-chain amine, O=C(C[*:1])[*:2]; COCH2 = acetyl group that carries the bridge; hCys = N[C@@H](CCS)C(=O)O

T1 sequence (P21802 22-377, change not shown): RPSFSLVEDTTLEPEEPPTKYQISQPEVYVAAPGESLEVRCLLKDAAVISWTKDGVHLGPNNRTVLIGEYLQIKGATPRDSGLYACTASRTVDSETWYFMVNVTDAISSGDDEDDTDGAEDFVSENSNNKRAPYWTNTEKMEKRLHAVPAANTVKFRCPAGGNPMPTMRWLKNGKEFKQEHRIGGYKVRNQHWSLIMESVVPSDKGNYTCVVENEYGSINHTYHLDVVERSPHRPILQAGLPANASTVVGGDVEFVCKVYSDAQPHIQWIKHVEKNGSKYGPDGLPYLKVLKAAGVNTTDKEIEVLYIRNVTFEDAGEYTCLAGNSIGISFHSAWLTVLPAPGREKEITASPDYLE
T2 sequence (P21802 with tags, fused parts or gaps limits assumed): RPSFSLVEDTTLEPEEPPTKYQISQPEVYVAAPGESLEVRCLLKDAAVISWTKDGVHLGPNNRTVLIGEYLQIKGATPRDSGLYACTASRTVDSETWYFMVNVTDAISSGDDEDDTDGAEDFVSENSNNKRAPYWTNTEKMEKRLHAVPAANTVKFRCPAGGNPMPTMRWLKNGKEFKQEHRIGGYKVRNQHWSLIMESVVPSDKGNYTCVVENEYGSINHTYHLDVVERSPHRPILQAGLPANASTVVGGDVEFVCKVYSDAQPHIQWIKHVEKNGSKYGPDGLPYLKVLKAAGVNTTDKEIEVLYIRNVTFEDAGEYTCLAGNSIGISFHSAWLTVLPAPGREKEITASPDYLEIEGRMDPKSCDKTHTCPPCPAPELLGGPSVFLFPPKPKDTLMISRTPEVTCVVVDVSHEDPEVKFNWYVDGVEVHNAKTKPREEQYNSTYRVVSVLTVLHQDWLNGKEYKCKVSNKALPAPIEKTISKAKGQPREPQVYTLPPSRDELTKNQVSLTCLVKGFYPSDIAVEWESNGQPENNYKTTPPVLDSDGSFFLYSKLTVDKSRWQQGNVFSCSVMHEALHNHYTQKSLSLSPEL

The first assay concerns the target T1, Recombinant Human FGFR2 alpha (IIIc) Fc Chimera Protein, CF (R&D systems, 712-FR-050) (human, UniProt P21802 22-377).
T1 construct: bought; not shown: Fc part of the chimera
Description: SPR, 10 nmol/L peptide over immobilized FGFR2-Fc.
Settings: not given
The protocol: A CM5 sensor chip (Cytiva, 29149603) was set in Biacore-T200 (manufactured by Cytiva) which is a surface plasmon resonance device, and an HBS-EP buffer (Cytiva, BR100826) was added as a running buffer at a flow rate of 10 μL/min to equilibrate the flow channel. Next, 70 μL of a mixed aqueous solution of 0.2 mol/L 1-(3-dimethylaminopropyl)-3-ethylcarbodiimide (EDC) and 0.05 mol/L N-hydroxysuccinimide (NHS) was added to activate the sensor chip. Then, Recombinant Human FGFR2 alpha (IIIc) Fc Chimera Protein CF (R&D systems, 712-FR-050) prepared at 50 nmol/L in an Acetate 4.5 buffer (Cytiva, BR100350) was added thereto to perform immobilization at about 5000 RU. Thereafter, the blocking treatment was performed with an ethanolamine solution. In addition, in another flow channel of the same sensor chip, blocking treatment was performed immediately after activation without immobilizing FGFR.
A cyclic peptide diluted to 10 nmol/L using HBS-EP was added to each flow channel of the FGFR-immobilized sensor chip produced above at 25° C. for 10 minutes, then HBS-EP was allowed to flow as a running buffer for 30 minutes, and the binding of the cyclic peptide to FGFR was measured. Thereafter, a regeneration treatment of removing the bound cyclic peptide was performed by repeating the flow of a regeneration liquid in which sodium chloride powder was dissolved in Glysine 1.5 (Cytiva, BR100354) to a final concentration of 0.15 mol/L for 1 minute in each flow channel twice. The binding amount of the cyclic peptide was evaluated from the difference between the measured value of Biacore-T200 in the flow channel in which FGFR was immobilized and the measured value of Biacore-T200 in the flow channel in which FGFR was not immobilated, in a case where a 10 nmol/L cyclic peptide was allowed to flow.
Q[hCys]PQNFINPVQWRYFQHYK(COCH2)NKKK (thioether 2-19 via acetyl″, chemically synthesized) [cyclic peptide SEQ ID NO: 433]: the “binding amount (SPR, cyclic peptide molecules bound per FGFR molecule at 10 nmol/L peptide)” value is ≥ 0.7 moleculesofthecyclicpeptide/onemoleculeoffgfr. The same measure, in the same setting: next, QXPQNFINPVQWRYFQHYXNKKK (not fully specified; thioether ring (Hcy)-(Orn(acetyl)), chemically synthesized) [cyclic peptide SEQ ID NO: 434]: ≥ 0.7 moleculesofthecyclicpeptide/onemoleculeoffgfr; QXPQNFINPVQWRYFQHYXNKKK (not fully specified; thioether ring (Hcy)-(Dab(acetyl)), chemically synthesized) [cyclic peptide SEQ ID NO: 435]: ≥ 0.7 moleculesofthecyclicpeptide/onemoleculeoffgfr. The same measure, in the same setting: next, QXPQNFINPVQWRYFQHYXNKKK (not fully specified; thioether ring (Orn(acetyl))-(Hcy), chemically synthesized) [cyclic peptide SEQ ID NO: 439]: ≥ 0.7 moleculesofthecyclicpeptide/onemoleculeoffgfr; QK(COCH2)PQNFINPVQWRYFQHY[hCys]NKKK (thioether 2-19 via acetyl″, chemically synthesized) [cyclic peptide SEQ ID NO: 437]: ≥ 0.7 moleculesofthecyclicpeptide/onemoleculeoffgfr.

Consider QXPQNFINPVQWRYFQHYXNKKK (not fully specified; thioether ring (Dab(acetyl))-(Hcy), chemically synthesized) [cyclic peptide SEQ ID NO: 440], for which the “binding amount (SPR, cyclic peptide molecules bound per FGFR molecule at 10 nmol/L peptide)” value was ≥ 0.7 moleculesofthecyclicpeptide/onemoleculeoffgfr.

QXPQNFINPVQWRYFQHYXNKKK (not fully specified; thioether ring (Dap(acetyl))-(Hcy), chemically synthesized) [cyclic peptide SEQ ID NO: 441]: the “binding amount (SPR, cyclic peptide molecules bound per FGFR molecule at 10 nmol/L peptide)” value is ≥ 0.7 moleculesofthecyclicpeptide/onemoleculeoffgfr. On the same count and under the same terms, next, QK(COCH2)PQNFINPVQWRYFQHY[hCys]NKKK (thioether 2-19 via acetyl″, chemically synthesized) [cyclic peptide SEQ ID NO: 438]: ≥ 0.7 moleculesofthecyclicpeptide/onemoleculeoffgfr.

Another assay has as its target T2, Recombinant Human FGFR2 alpha (IIIc) Fc Chimera Protein (Homo sapiens, UniProt P21802).
T2 construct: Fc (chimera); purchased R&D systems 712-FR-050
Kind of assay: ELISA binding affinity of enzymatically synthesized peptide to FGFR. The following applies: ELISA luminescence signal at 10 nmol/L peptide, SEQ ID NO: 47 at 10 nmol/L standardized to 1; enzyme synthesis product. The essentials:
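FGFR2 alpha (IIIc) Fc chimera (5 ng/well) was immobilized, and Myc-tagged peptide was bound 3 h at room temperature, then detected with anti-Myc antibody (2 h) and chemiluminescent substrate. Signal was corrected against FGFR-free wells. Score A–D was the luminescence at 10 nmol/L peptide, normalized to cyclic peptide SEQ ID NO: 47.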
(In general: ELISA stands for enzyme-linked immunosorbent assay.)
For “62 (KCPQNFINPVQARYFQHYK(COCH2)N; thioether 2-19 (inferred)) [compound 62]”, the “Evaluation result of binding affinity to FGFR” value (from here on “Evaluation result”) was “C (0.1 or more and less than 0.5)”.

As to “134 (LCADQYDYLLQYVFWRTYK(COCH2)I; thioether 2-19 (inferred)) [compound 134]”, the “Evaluation result” value is “C (0.1 or more and less than 0.5)”. The same measure, in the same setting: next, “190 (YCEENQLDPEQYQYFIYFK(COCH2)Y; thioether 2-19 (inferred)) [compound 190]”: “C (0.1 or more and less than 0.5)”. As to “146 (TCEENYLDPEQYQYFIYFKY; Description of Artificial Sequence: Cyclic peptide) [compound 146]”, the “Evaluation result” value is “A (0.7 or more)”. Same read-out and setting: next, “369 (DCLQFLYLYLYQK(COCH2)T; thioether 2-13) [compound 369]”: “C (0.1 or more and less than 0.5)”. On the same count and under the same terms, the same measure for “421 (VCLDEQQALFHQYYRITRRK(COCH2)V; thioether 2-20 via acetyl) [compound 421]”: “C (0.1 or more and less than 0.5)”; for “160 (YCQENYLDPEQYQYFIYFK(COCH2)Y; thioether 2-19 (inferred)) [compound 160]”: “A (0.7 or more)”; for “325 (YCEEAYLDPEQYQYFIYFK(COCH2)Y; thioether 2-19 (inferred)) [compound 325]”: “C (0.1 or more and less than 0.5)”. On the same count and under the same terms, next, “139 (ICEENYLDPEQYQYFIYFK(COCH2)Y; thioether 2-19 (inferred)) [compound 139]”: “A (0.7 or more)”; “108 (LCRNYINPQQWRYFALYK(COCH2)Y; thioether 2-18 (inferred)) [compound 108]”: “A (0.7 or more)”; “48 (GCYWNEVQYYYLQQYKQ; Description of Artificial Sequence: Cyclic peptide) [compound 48]”: “A (0.7 or more)”. Consider “353 (YCEENYLDMEQYQYFIYFK(COCH2)Y; thioether 2-19) [compound 353]”, for which the “Evaluation result” value was “A (0.7 or more)”. The same measure, in the same setting: next, “177 (YCETNYLDPEQYQYFIYFK(COCH2)Y; thioether 2-19 (inferred)) [compound 177]”: “A (0.7 or more)”; “221 (YCEENYLDGEQYQYFIYFK(COCH2)Y; thioether 2-19 (inferred)) [compound 221]”: “A (0.7 or more)”; “381 (VCQEYYLYQYVYELK(COCH2)Y; thioether 2-15 (inferred)) [compound 381]”: “C (0.1 or more and less than 0.5)”.

Take “75 (VCPQNFINPVQWRYFQHYK(COCH2)N; thioether 2-19 (inferred)) [compound 75]”: the “Evaluation result” value is reported as “A (0.7 or more)”. Still for that read-out and setting: next, “307 (YCEENYLDPEQYQYFIYWK(COCH2)Y; thioether 2-19 (inferred)) [compound 307]”: “A (0.7 or more)”; “229 (YCEENYLDQEQYQYFIYFK(COCH2)Y; thioether 2-19 (inferred)) [compound 229]”: “A (0.7 or more)”. Take “317 (YCEENYLDPEQYQYFIYFK(COCH2)T; thioether 2-19 (inferred)) [compound 317]”: the “Evaluation result” value is on record as “A (0.7 or more)”. As for “267 (YCEENYLDPEQYDYFIYFK(COCH2)Y; thioether 2-19) [compound 267]”, the “Evaluation result” value is listed as “A (0.7 or more)”. As for “171 (YCEFNYLDPEQYQYFIYFK(COCH2)Y; thioether 2-19 (inferred)) [compound 171]”, the “Evaluation result” value was “B (0.5 or more and less than 0.7)”.

For the molecule “281 (YCEENYLDPEQYQYFYYFK(COCH2)Y; thioether 2-19) [compound 281]”, the “Evaluation result” value is “A (0.7 or more)”. Same read-out and setting: the same measure for “37 (QCQLNYWDDLQFTYYLQYK(COCH2)V; thioether 2-19) [compound 37]”: “A (0.7 or more)”; for “263 (YCEENYLDPEQYWYFIYFK(COCH2)Y; thioether 2-19) [compound 263]”: “A (0.7 or more)”. The same measure, in the same setting: next, “142 (WCEENYLDPEQYQYFIYFKY; Description of Artificial Sequence: Cyclic peptide) [compound 142]”: “A (0.7 or more)”.

Consider “316 (YCEENYLDPEQYQYFIYFK(COCH2)S; thioether 2-19 (inferred)) [compound 316]”, for which the “Evaluation result” value is recorded as “A (0.7 or more)”. Regarding “260 (YCEENYLDPEQYVYFIYFK(COCH2)Y; thioether 2-19) [compound 260]”, the “Evaluation result” value is listed as “A (0.7 or more)”. “192 (YCEENDLDPEQYQYFIYFK(COCH2)Y; thioether 2-19 (inferred)) [compound 192]”: the “Evaluation result” value was “C (0.1 or more and less than 0.5)”. Same read-out and setting: next, “84 (ECPQNFINPVQWRYFQHYK(COCH2)N; thioether 2-19 (inferred)) [compound 84]”: “A (0.7 or more)”. On the same count and under the same terms, the same measure for “100 (QCPQHFINPVQWRYFQHYK(COCH2)N; thioether 2-19 (inferred)) [compound 100]”: “C (0.1 or more and less than 0.5)”.
